Here are results for one substance from paper PMC4019675.

In the assay the target is FtsZ-Alexa488 (Cys-FtsZ labeled with Alexa488-maleimide). Kind of assay: TIRF microscopy, single particle tracking.

Regarding “FtsZ-Cy5 (Cys-FtsZ labeled with Cy5-maleimide) (natural protein)”, the average lifetime of FtsZ monomers in the filament network was 7.16 s.
